Data as given in publication PMC9884297, “Iron-sulfur clusters are involved in post-translational arginylation” (Nature Communications, 2023).

Target: the molecule itself
Assay: SEC; 120 mL gel filtration column, 25 mmol/L Tris pH 7.5, 100 mmol/L NaCl, 1 mmol/L TCEP, 0.35 mol/L glycerol; apparent oligomeric state

B1: Arg tRNA synthetase from E. coli (strain K12) (enzyme, UniProt P11875 1-577, looked up)
chain: MNIQALLSEKVRQAMIAAGAPADCEPQVRQSAKVQFGDYQANGMMAVAKKLGMAPRQLAEQVLTHLDLNGIASKVEIAGPGFINIFLDPAFLAEHVQQALASDRLGVATPEKQTIVVDYSAPNVAKEMHVGHLRSTIIGDAAVRTLEFLGHKVIRANHVGDWGTQFGMLIAWLEKQQQENAGEMELADLEGFYRDAKKHYDEDEEFAERARNYVVKLQSGDEYFREMWRKLVDITMTQNQITYDRLNVTLTRDDVMGESLYNPMLPGIVADLKAKGLAVESEGATVVFLDEFKNKEGEPMGVIIQKKDGGYLYTTTDIACAKYRYETLHADRVLYYIDSRQHQHLMQAWAIVRKAGYVPESVPLEHHMFGMMLGKDGKPFKTRAGGTVKLADLLDEALERARRLVAEKNPDMPADELEKLANAVGIGAVKYADLSKNRTTDYIFDWDNMLAFEGNTAPYMQYAYTRVLSVFRKAEIDEEQLAAAPVIIREDREAQLAARLLQFEETLTVVAREGTPHVMCAYLYDLAGLFSGFYEHCPILSAENEEVRNSRLKLAQLTAKTLKLGLDTLGIETVERM
notes: Arg tRNA synthetase, E. coli strain K12, UniProt P11875; A TEV-protease cleavage site (ENLYFQS) lies between the protein and the C-terminal (His)6 tag (pET-21a(+), NdeI/XhoI); also called EcArgRS; ArgRS
- stoichiometry N: 6
